Experimental findings from article PMC7305985 are described below.

Experiment [1] concerns the target Histone H4K5ac peptide, biotinylated (1–23) (UniProt P62805). The experiment is described as follows: pull-down.
The target of experiment [2] is Mononucleosomes, Recombinant Human Biotinylated (human) (UniProt P04908). The experiment is described as follows: pull-down.
Experiment [3] addresses FLAG-tagged KAP1 ΔRB. In words: co-IP.

Sequence of FLAG-tagged KAP1 ΔRB (Q13263 2-835, stated change not applied): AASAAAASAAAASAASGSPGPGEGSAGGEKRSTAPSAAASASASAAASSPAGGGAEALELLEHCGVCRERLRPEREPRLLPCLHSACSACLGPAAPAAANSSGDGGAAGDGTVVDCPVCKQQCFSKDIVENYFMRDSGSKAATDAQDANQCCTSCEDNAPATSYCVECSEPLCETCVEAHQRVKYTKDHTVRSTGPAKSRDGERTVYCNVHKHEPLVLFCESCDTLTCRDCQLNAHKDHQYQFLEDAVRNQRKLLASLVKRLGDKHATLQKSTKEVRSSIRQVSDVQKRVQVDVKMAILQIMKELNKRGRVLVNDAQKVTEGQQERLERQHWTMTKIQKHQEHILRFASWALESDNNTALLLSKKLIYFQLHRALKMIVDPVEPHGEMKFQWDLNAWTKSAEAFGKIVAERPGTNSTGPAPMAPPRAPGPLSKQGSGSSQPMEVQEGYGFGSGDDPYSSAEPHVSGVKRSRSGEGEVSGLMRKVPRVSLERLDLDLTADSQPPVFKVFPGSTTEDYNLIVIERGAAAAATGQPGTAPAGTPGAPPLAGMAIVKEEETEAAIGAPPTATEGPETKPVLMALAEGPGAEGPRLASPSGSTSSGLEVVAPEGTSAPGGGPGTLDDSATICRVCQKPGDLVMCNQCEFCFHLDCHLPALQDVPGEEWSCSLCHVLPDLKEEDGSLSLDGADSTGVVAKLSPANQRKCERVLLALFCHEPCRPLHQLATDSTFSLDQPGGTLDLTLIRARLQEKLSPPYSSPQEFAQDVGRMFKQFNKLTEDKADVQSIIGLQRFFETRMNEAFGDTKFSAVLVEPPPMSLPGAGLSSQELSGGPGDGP
Sequence of endogenous SMAD2 (Q15796 whole entry): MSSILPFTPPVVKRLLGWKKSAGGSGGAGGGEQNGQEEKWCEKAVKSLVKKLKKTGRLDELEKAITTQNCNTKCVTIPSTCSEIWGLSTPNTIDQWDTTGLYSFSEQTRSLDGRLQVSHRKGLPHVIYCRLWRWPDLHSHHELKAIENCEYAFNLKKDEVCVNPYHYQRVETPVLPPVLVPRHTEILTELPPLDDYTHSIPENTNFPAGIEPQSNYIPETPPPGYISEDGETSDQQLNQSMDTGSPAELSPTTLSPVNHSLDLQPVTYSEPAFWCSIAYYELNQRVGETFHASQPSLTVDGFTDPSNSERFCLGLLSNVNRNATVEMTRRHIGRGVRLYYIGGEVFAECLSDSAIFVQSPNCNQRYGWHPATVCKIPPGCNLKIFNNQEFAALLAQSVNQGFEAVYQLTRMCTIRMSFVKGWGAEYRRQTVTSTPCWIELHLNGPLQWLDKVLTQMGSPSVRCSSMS

For “GST-tagged KAP1 PHD-BD (residues 614–835) (from UniProt Q13263 614-835) (domain or fragment)”, in experiment [1], the percent lower binding relative to unmodified H4 is 30%.
Regarding “GST-tagged KAP1 PHD-BD E662/663A (from UniProt Q13263 614-835) (domain or fragment)”, in experiment [2], the percent reduction in binding relative to WT KAP1 came to 80%.
As for “endogenous SMAD2 (from UniProt Q15796 1-467) (natural protein)”, the percent decrease in binding relative to WT KAP1 in experiment [3] came out at 80%.
